Test results published in US12359199B2, “Regulation of gene expression via aptamer-mediated control of self-cleaving ribozymes” (MEIRAGTX UK II LIMITED, priority 2016, dated 2025).
Values joined by “and” are separate entries in the source; they are usually repeats but may differ in a detail not shown here. Equal values may be shown once.

How the values were obtained:
Type in all cases: cell-based
[1] = tested on: firefly luciferase expression in HEK 293 cells; experiment: Firefly luciferase assay of transfected HEK 293 cells treated with or without guanine or guanosine; conditions: riboswitch in 3′ UTR
Protocol: Firefly luciferase assay of cultured cells: 24 hours after media change, plates were removed from the incubator, equilibrated to RT for several minutes on a lab bench, and then aspirated. Glo-lysis buffer (Promega, 100 μL, RT) was added, and the plates allowed to remain at RT for at least 5 minutes. The well contents were mixed by 50 μL trituration, and 20 μL of each sample was mixed with 20 μL of bright-glo reagent (Promega) that had been diluted to 10% in glo-lysis buffer. 96 wells were spaced on an opaque white 384-well plate. Following a 5-minute incubation at RT, luminescence was measured using a Tecan machine with 500 mSec read time. The luciferase activity was expressed as mean relative light unit (RLU)±S.D. […]
Transfection and aptamer ligand treatment: HEK 293 cells were transfected as described in Example 1. Four hours after transfection, the media was aspirated, and new media with or without 500 μM guanine or 1 mM guanosine (Sigma) was added. Luciferase assay was performed 20 to 24 hours after guanine or guanosine treatment as described in Example 2. The reduction fold was expressed as the quotient of luciferase activity obtained in the absence of aptamer ligand divided by the value obtained in the presence of the aptamer ligand.
Oligos containing either a start codon or coding sequence for the first 10 amino acids of GFP and waspGua16 followed by a linker2A sequence were synthesized (IDT) and cloned into the pLuc vector using the Gibson cloning strategy and cloning kit (NEB). Transfection and luciferase assay of cultured cells were performed as described in Example 3. […]

[2] = tested on: mouse erythropoietin (Epo) gene expression in HEK 293 cells; experiment: ELISA assay for measuring mouse Epo in culture media of transfected HEK 293 cells; conditions: riboswitch in 3′ UTR of mouse Epo gene; ligand-treated vs solvent-treated control cells; supernatant 18 hours after treatment
Protocol: FIG. 3e. HEK 293 cells were transfected with the indicated constructs, and treated with 500 μM guanosine. DMSO was used as solvent control. Supernatant was collected 18 hours after guanosine treatment, the Epo was measured using ELISA kit. The results were expressed as mean±SD (n=2). Shown is the representative of two independent experiments.
ELISA assay for measuring mouse Epo in culture media: Supernatant was collected 18 hours after drug treatment, and an ELISA was performed using ELISA kit (R&D) according to manufacturer's instructions. The data was analyzed using 4-parameter curve fitting.

[3] = tested on: firefly luciferase expression in HEK 293 cells; experiment: Firefly luciferase assay of transfected HEK 293 cells treated with or without theophylline
Protocol: Firefly luciferase assay of cultured cells: 24 hours after media change, plates were removed from the incubator, equilibrated to RT for several minutes on a lab bench, and then aspirated. Glo-lysis buffer (Promega, 100 μL, RT) was added, and the plates allowed to remain at RT for at least 5 minutes. The well contents were mixed by 50 μL trituration, and 20 μL of each sample was mixed with 20 μL of bright-glo reagent (Promega) that had been diluted to 10% in glo-lysis buffer. 96 wells were spaced on an opaque white 384-well plate. Following a 5-minute incubation at RT, luminescence was measured using a Tecan machine with 500 mSec read time. The luciferase activity was expressed as mean relative light unit (RLU)±S.D.
Oligos containing the twister ribozyme sequence linked with theophylline aptamer were synthesized (IDT), and cloned into pLuc vector using Gibson cloning strategy and kit (NEB). Construct sequences were verified by DNA sequencing (Genewiz).
Transfection and firefly luciferase assay: HEK 293 cells were transfected as described in Example 1. Four hours after transfection, the media was aspirated, and new media with or without 2 mM theophylline (Sigma) was added. […] The reduction fold was expressed as the quotient of luciferase activity obtained in the absence of aptamer ligand divided by the value obtained in the presence of the aptamer ligand.

[4] = tested on: firefly luciferase expression in HEK 293 cells; experiment: Firefly luciferase assay of HEK 293 cells transfected with twister ribozyme constructs (no ligand); conditions: twister in 3′ UTR of firefly luciferase, compared to pFLuc control construct
Description: Plasmid constructs: The following primers were used to generate constructs GFP_wasp_No Sac 0HP or GFP_wasp_No Sac 3HP: forward primers NoSac_Fwd (5′ […]) and NoSac3HP_Fwd (5′ […]) and reverse primer MfeI Rev (5′ […]). GFP_wasp-twister vector was used as template and the PCR-amplified DNA fragments were digested with BsrGI and MfeI and cloned into pEGFP-C1 digested with BsrGI and MfeI enzymes. The EGFP gene in pEGFP-C1 was replaced with the firefly luciferase gene to generate the pFLuc vector using Gibson cloning strategy and cloning kit (NEB). The same strategy was used to generate constructs Luc_wasp_No Sac 0HP and Luc_wasp_No Sac 3 HP by replacing the EGFP gene in constructs GFP_wasp_no Sac 0HP and GFP_wasp_no Sac 3HP with the firefly luciferase gene.
Firefly luciferase assay of cultured cells: 24 hours after media change, plates were removed from the incubator, equilibrated to RT for several minutes on a lab bench, and then aspirated. Glo-lysis buffer (Promega, 100 μL, RT) was added, and the plates allowed to remain at RT for at least 5 minutes. […] Following a 5-minute incubation at RT, luminescence was measured using a Tecan machine with 500 mSec read time. The luciferase activity was expressed as mean relative light unit (RLU)±S.D.

B1: Luci-waspGua16: Luciferase construct with 3 bp of stem connecting the guanine aptamer directly to twister loop 2; OFF riboswitch in 3′ UTR (nucleic acid)
DNA: TCAGAGAGATCCTCATAAAGGCCAAGAAGGGCGGAAAGATCGCCGTGTAAACGCCTTGTAATGCGGCATATAATCGCGTGGATATGGCACGCAAGTTTCTACCGGGCACCGTAAATGTCCGACTATTCGGTCTCAAGCCCGATAAACGCAGAGAGCAAGGCGGCCGCCATACCACATTTGTAGAGGTTTTACTTGCTTTAAAAAACCTCCCACACCTCCCCCTGAACCTGAAACATAAAATGAATGC
modifications: misc_feature 1..247 waspGua16 in pLuc
notes: Luciferase construct with 3 bp of stem connecting the guanine aptamer directly to twister loop 2; OFF riboswitch in 3′ UTR
- fold reduction in luciferase activity upon guanine treatment ([1]; 500 μM guanine vs no guanine): 15 fold and 12 fold
- reduction in luciferase activity upon guanine treatment ([1]; 500 μM guanine vs no guanine): 92%
- reduction in luciferase activity upon guanine treatment (in words) ([1]; 500 μM guanine): reduced luciferase activity
- fold reduction in luciferase expression upon guanosine treatment ([1]; guanosine at 1 mM as aptamer ligand): 25 fold
- reduction of Epo production [2]: approximately 30%

B2: twister_theo_3: Theophylline aptamer linked by 3 bp stem to loop 2 of twister ribozyme, in pLuc (nucleic acid)
DNA: TCAGAGAGATCCTCATAAAGGCCAAGAAGGGCGGAAAGATCGCCGTGTAAACGCCTTGTAATGCGGCGCGATACCAGCCGAAAGGCCCTTGGCAGCGTTCGGTCTCAAGCCCGATAAACGCAGAGAGCAAGGCGGCCGCCATACCACATTTGTAGAGGTTTTACTTGCTTTAAAAAACCTCCCACACCTCCCCCTGAACCTGAAACATAAAATGAATGC
modifications: misc_feature 1..219 twister_theo_3 in pLuc
notes: Theophylline aptamer linked by 3 bp stem to loop 2 of twister ribozyme, in pLuc
- reduction in gene expression (luciferase activity) upon theophylline treatment ([3]; 2 mM theophylline vs no theophylline): 62%
- luciferase activity in the absence of aptamer ligand (in words) ([3]; no theophylline): the most robust luciferase activity

B3: Luc_wasp_No Sac 3HP: Firefly luciferase construct with wasp twister with 3 bp stem (3HP) at P1 stem in 3′ UTR (nucleic acid)
DNA: TCAGAGAGATCCTCATAAAGGCCAAGAAGGGCGGAAAGATCGCCGTGTAAACGCCTTGTAATGCGGCCGTGTAAATAATTTACACGTCGGTCTCAAGCCCGATAAACGCAGAGAGCAAGGCGGCCGCCATACCACATTTGTAGAGGTTTTACTTGCTTTAAAAAACCTCCCACACCTCCCCCTGAACCTGAAACATAAAATGAATGC
modifications: misc_feature 1..207 wasp_No Sac 3HP in pLuc
notes: Firefly luciferase construct with wasp twister with 3 bp stem (3HP) at P1 stem in 3′ UTR
- fold reduction of luciferase activity [4]: 254 fold
